Measurements published in PMC1088972, “Engineering a Dimeric Caspase-9: A Re-evaluation of the Induced Proximity Model for Caspase Activation” (PLoS Biology, 2005).

What was measured:
[1] = target: the molecule itself; test: SEC; gel filtration of WT and engineered caspase-9 (Δ139, residues 140-416); unpublished data
[2] = target: the molecule itself; test: crystal structure; hanging-drop vapor diffusion, 100 mM MES pH 6.0, 5% PEG 5000 monomethyl ether, 3% tacsimate; space group C2; two molecules of the dimer in the asymmetric unit; molecular replacement

B1: engineered (dimeric) caspase-9 (Δ139, residues 140-416) (domain or fragment, UniProt P55211 140-416, looked up)
chain: GALESLRGNADLAYILSMEPCGHCLIINNVNFCRESGLRTRTGSNIDCEKLRRRFSSLHFMVEVKGDLTAKKMVLALLELAQQDHGALDCCVVVILSHGCQASHLQFPGAVYGTDGCPVSVEKIVNIFNGTSCPSLGGKPKLFFIQACGGEQKDHGFEVASTSPEDESPGSNPEPDATPFQEGLRTFDQLDAISSLPTPSDIFVSYSTFPGFVSWRDPKSGSWYVETLDDIFEQWAHSEDLQSLLLRVANAVSVKGIYKQMPCIVSMLRKKLFFKTS
notes: caspase-9, residues 140-416; prodomain and flexible linker removed; five residues of strand beta6 replaced by those of caspase-3 (Cys264-Ile-Val-Ser-Met268); Predicted dimer mass printed as 62,746 Da; written as one chain; also called engineered caspase-9 (Δ139); Δ139 dimeric caspase-9; source: E. coli BL21(DE3), vector pET-21b, purified (Ni-NTA, anion exchange Source-15Q, gel filtration …)
stoichiometry N [1]: 2

B2: dimeric caspase-9 (residues 140-416, C287S) (domain or fragment, UniProt P55211 140-416, looked up)
chain: GALESLRGNADLAYILSMEPCGHCLIINNVNFCRESGLRTRTGSNIDCEKLRRRFSSLHFMVEVKGDLTAKKMVLALLELAQQDHGALDCCVVVILSHGCQASHLQFPGAVYGTDGCPVSVEKIVNIFNGTSCPSLGGKPKLFFIQASGGEQKDHGFEVASTSPEDESPGSNPEPDATPFQEGLRTFDQLDAISSLPTPSDIFVSYSTFPGFVSWRDPKSGSWYVETLDDIFEQWAHSEDLQSLLLRVANAVSVKGIYKQMPCIVSMLRKKLFFKTS
notes: caspase-9, residues 140-416; five residues of strand beta6 replaced by those of caspase-3; catalytic Cys287 mutated to Ser; Crystallised form; the model holds residues 140-288 and 335-416 (chains A, C) and 140-289 and 337-416 (chains B, D); also called dimeric caspase-9 (C287S); source: E. coli BL21(DE3), vector pET-21b, purified (Ni-NTA, anion exchange Source-15Q, gel filtration Superdex-200)
binding result [2]: binds
